Test results: US20080026996A1, “Selective Vpac2 Receptor Reptide Agonists” (ELI LILLY AND COMPANY, priority 2004, published 2008)
Where no end group is shown, it is not given here. [ ]: non-standard residue; d: D form. The star is where a group is joined. hArg = N=C(N)NCCCC[C@H](N)C(=O)O; Nle = CCCC[C@H](N)C(=O)O; Orn = NCCC[C@H](N)C(=O)O; Hexanoyl = CCCCCC(=O)*; Aib = CC(C)(N)C(=O)O

Legend:
[1] = target: T1, human VPAC2 (Homo sapiens, UniProt P41587); assay: Alpha screen cAMP in vitro potency, human VPAC2 receptor; type: cell-based; conditions: cAMP generation; single result from two analyses performed in a single run; read-out: Human VPAC2 Receptor: Alpha Screen EC50
T1 construct: expressed in transfected cells
T1 sequence (P41587 24-438): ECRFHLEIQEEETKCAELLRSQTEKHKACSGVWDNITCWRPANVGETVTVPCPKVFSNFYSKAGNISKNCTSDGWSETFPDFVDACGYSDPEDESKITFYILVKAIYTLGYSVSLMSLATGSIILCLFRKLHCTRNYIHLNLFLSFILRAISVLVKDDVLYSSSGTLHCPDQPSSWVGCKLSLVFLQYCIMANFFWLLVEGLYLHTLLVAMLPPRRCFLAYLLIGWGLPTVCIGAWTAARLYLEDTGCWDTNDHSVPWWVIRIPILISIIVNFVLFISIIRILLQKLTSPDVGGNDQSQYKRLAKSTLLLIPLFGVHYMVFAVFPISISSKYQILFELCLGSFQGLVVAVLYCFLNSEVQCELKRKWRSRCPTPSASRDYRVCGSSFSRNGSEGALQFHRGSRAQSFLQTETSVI
Outline: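 Stimulated cAMP accumulation is read by AlphaScreen after 60 min exposure of 50,000 non-enzymatically harvested cells to compound, followed by lysis with donor beads.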

[2] = target: T1, human VPAC2; assay: Filter binding assay, membranes of stable VPAC2 cell line, 125I-labeled VIP tracer (Table 2); conditions: read-out: Human VPAC2 Receptor Binding
Outline: (§1)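 Membranes 2.5 μg/well; tracer ~40000 cpm; buffer 25 mM HEPES pH 7.4, 0.5% protease-free BSA; 1 h incubation, shaking. Glass-fibre filtration (0.5% polyethyleneamine presoak, 0.2% BSA block), 3× HEPES wash, dry 1 h at 60° C, scintillation count.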

[3] = target: T2, human VPAC1 (Homo sapiens, UniProt P32241); assay: Filter binding assay, membranes of cells transiently transfected with human VPAC1, 125I-labeled VIP tracer (Table 2); design: expressed in transfected cells; conditions: read-out: Human VPAC1 Receptor Binding
T2 sequence (P32241 31-457): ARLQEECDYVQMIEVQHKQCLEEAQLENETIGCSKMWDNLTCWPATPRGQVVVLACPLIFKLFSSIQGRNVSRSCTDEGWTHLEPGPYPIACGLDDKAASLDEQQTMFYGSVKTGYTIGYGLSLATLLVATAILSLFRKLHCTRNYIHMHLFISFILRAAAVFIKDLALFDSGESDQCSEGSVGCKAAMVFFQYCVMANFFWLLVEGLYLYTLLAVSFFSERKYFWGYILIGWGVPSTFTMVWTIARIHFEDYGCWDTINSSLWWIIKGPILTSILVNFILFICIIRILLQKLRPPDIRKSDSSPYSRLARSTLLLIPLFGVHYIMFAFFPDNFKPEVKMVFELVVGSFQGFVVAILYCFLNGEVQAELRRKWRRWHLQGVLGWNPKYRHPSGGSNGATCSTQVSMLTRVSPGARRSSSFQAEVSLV
Outline: as §1

[4] = target: T3, rat VPAC2 receptor (Rattus norvegicus, UniProt P35000); assay: DiscoveRx in vitro potency, CHO-PO cells transiently transfected with rat VPAC 2 receptor DNA; type: cell-based; design: expressed in transfected cells; host or cells: CHO-PO, transient
T3 sequence (P35000 23-437): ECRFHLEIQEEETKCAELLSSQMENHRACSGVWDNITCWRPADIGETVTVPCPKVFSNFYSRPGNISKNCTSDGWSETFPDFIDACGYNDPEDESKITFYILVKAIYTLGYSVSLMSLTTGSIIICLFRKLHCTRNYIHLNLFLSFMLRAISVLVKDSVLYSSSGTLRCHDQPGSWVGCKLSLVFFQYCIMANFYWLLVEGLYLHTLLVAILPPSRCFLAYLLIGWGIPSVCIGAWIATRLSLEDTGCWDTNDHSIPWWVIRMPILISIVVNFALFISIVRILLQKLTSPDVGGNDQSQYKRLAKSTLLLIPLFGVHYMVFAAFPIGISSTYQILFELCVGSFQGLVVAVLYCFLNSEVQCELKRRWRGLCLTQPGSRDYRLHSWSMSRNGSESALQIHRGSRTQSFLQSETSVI
Description: Also, the cells are washed twice. […] The stimuli are present for 30 minutes. Then, the assay buffer is gently removed.

[5] = target: T4, human VPAC2 receptor (human, UniProt P41587 24-438); assay: cell-based or functional assay
T4 sequence (looked up): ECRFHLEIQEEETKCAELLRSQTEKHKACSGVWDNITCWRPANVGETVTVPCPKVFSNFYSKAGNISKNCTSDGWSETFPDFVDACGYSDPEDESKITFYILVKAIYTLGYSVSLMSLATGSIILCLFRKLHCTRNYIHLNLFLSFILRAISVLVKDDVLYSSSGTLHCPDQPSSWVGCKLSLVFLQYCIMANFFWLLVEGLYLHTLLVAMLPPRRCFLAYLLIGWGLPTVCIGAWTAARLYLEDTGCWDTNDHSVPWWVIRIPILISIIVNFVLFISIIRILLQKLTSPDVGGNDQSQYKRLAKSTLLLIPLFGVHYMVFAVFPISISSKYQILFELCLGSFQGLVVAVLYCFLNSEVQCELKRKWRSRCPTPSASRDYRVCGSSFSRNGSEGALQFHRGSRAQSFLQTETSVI

[6] = target: T5, rat VPAC1 receptor (rat, UniProt P30083 31-459); assay: cell-based or functional assay
T5 sequence (looked up): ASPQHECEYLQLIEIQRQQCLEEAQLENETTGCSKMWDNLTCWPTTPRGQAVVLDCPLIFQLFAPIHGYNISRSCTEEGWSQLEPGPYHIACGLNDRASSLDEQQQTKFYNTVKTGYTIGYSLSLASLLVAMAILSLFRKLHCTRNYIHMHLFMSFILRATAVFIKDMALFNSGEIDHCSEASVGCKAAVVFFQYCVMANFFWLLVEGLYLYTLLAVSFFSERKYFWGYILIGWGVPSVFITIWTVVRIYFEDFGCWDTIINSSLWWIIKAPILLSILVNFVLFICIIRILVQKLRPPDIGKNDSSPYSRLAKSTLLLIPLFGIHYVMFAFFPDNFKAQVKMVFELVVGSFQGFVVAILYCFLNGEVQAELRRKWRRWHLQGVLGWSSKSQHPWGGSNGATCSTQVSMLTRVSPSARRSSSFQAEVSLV

[7] = target: T6, rat VPAC2 receptor (rat, UniProt P35000 23-437); assay: cell-based or functional assay
T6 sequence (looked up): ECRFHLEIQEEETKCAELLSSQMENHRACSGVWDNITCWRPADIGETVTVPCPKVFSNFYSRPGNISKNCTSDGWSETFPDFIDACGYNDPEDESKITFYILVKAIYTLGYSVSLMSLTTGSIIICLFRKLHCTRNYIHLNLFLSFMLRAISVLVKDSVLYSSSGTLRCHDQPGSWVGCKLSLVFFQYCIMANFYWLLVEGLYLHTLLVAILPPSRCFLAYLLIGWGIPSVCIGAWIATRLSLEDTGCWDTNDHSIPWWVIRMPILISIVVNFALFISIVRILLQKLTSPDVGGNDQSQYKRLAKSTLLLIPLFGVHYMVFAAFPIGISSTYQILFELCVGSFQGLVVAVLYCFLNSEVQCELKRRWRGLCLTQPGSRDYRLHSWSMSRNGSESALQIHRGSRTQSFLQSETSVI

Row | Molecule | EC50 [1] | IC50 [2] | IC50 [3] | EC50 [4] | EC50 cAMP, Alpha Screen [5] | EC50 cAMP, DiscoveRx [6] | EC50 cAMP, DiscoveRx [7]
1 | Hexanoyl-HSDAVFTDNYTRLR[Aib]KVAA[Aib]KYLQSIKNKRYGGPSSGAPPPS [Agonist P321] | 0.38 nM | 0.29 nM | 429 nM | 0.04 nM | – | – | –
2 | Hexanoyl-HSDAVFTDNYTRL[Aib]KQVAAK[Aib]YLQSIKNKRYGGPSSGAPPPS (ends and bridges not checked) [P244] | – | – | – | – | 2.03 nM | 127 nM | 1.85 nM
3 | HSDAVFTDNYTXLRXQVAAXKYLQSIXNXXYGGPSSGAPPPS (N-terminal hexanoyl (C6); hR at 12, 27, 29, 30; Aib at 15, 20) [P338] | – | – | – | – | 0.46 nM | 5.16 nM | 0.07 nM
4 | Hexanoyl-HSDAVFTDNYTRLR[Aib]QVAAK[Aib]YLQSIKNKRYGGPSSGAPPPS (ends and bridges not checked) [P264] | – | – | – | – | 0.1 nM | 4.01 nM | 0.1 nM
5 | Hexanoyl-HSDAVFTDNYTRLR[Aib]QLAAK[Aib]YLQSIKNKRYGGPSSGAPPPS (ends and bridges not checked) [P284] | – | – | – | – | 0.18 nM | 0.44 nM | 0.07 nM
6 | Hexanoyl-HSDAVFTDNYTRL[hArg]KQVAAKKYLQSIKNKRYGGPSSGAPPPS (ends and bridges not checked) [P305] | – | – | – | – | 0.17 nM | 3.71 nM | 0.04 nM
7 | Hexanoyl-HSDAVFTDNYTRLRKQVAA[Aib]KYLQSIKNKRYGGPSSGAPPPS (ends and bridges not checked) [P169] | – | – | – | – | 0.14 nM | 1.32 nM | 0.07 nM
8 | Hexanoyl-HSDAVFTDNYTRL[Aib]KQVAAKKYLQSIKNKRYGGPSSGAPPPS (ends and bridges not checked) [P167] | – | – | – | – | 0.17 nM | 6.88 nM | 0.24 nM
9 | Hexanoyl-HSDAVFTDNYTRL[Aib]KQVAAQKYLQSIKNKRYGGPSSGAPPPS (ends and bridges not checked) [P243] | – | – | – | – | 0.28 nM | 157 nM | 0.79 nM
10 | HSDAVFTDNYTXLRXQVAAXKYLQSIXNXGGPSSGAPPPS (N-terminal hexanoyl (C6); Orn at 12, 27, 29; Aib at 15, 20) [P326] | – | – | – | – | 0.21 nM | 4.53 nM | 0.09 nM
11 | HSDAVFTDNYTRLRXQVAAXKYLQSIXXGGPSSGAPPPS (N-terminal hexanoyl (C6); Aib at 15, 20; Orn at 27, 28) [P352] | – | – | – | – | 0.14 nM | 4.35 nM | 0.09 nM
12 | Hexanoyl-HSDAVFTDNYTRLR[Aib]Q[Nle]AA[Aib]KYLQSIKNKRYGGPSSGAPPPS (ends and bridges not checked) [P325] | – | – | – | – | 0.24 nM | 1.46 nM | 0.04 nM
13 | Hexanoyl-HSDAVFTDNYTRL[Aib]KQLAA[Aib]KYLQSIKNKRYGGPSSGAPPPS (ends and bridges not checked) [P240] | – | – | – | – | 0.51 nM | 24.5 nM | 0.36 nM
14 | Hexanoyl-HSDAVFTDNYTRL[Aib]KQVAA[Aib]KYLQSIKNKRYGGPSSGAPPPS (ends and bridges not checked) [P242] | – | – | – | – | 0.8 nM | 72.2 nM | 0.46 nM
15 | Hexanoyl-HSEAVFTENYTRLR[Aib]QVAA[Aib]KYLQSIKNKRYGGPSSGAPPPS (ends and bridges not checked) [P314] | – | – | – | – | 0.22 nM | 29.2 nM | 0.12 nM
16 | Hexanoyl-HSDAVFTDNYTRLR[Aib]QIAA[Aib]KYLQSIKNKRYGGPSSGAPPPS (ends and bridges not checked) [P322] | – | – | – | – | 0.22 nM | 0.5 nM | 0.04 nM
17 | Hexanoyl-HSDAVFTDQYTRLR[Aib]QVAA[Aib]KYLQSIKQKRYGGPSSGAPPPS (ends and bridges not checked) [P315] | – | – | – | – | 0.19 nM | 1.18 nM | 0.04 nM
18 | Hexanoyl-HSDAVFTDNYTRLR[Aib]KVAA[Aib]KYLQSIKNKRYGGPSSGAPPPS (ends and bridges not checked) [P321] | – | – | – | – | 0.38 nM | 0.11 nM | 0.04 nM
19 | Hexanoyl-HSDAVFTDNYTRLR[Aib]QKAA[Aib]KYLQSIKNKRYGGPSSGAPPPS (ends and bridges not checked) [P323] | – | – | – | – | 0.23 nM | 4.41 nM | 0.07 nM
20 | Hexanoyl-HSDAVFTDNYTRLK[Aib]QVAA[Aib]KYLQSIKNKRYGGPSSGAPPPS (ends and bridges not checked) [P318] | – | – | – | – | 0.32 nM | 9.96 nM | 0.09 nM
21 | Hexanoyl-HSDAVFTDNYTRL[hArg][Orn]QVAAKKYLQSIKNKRYGGPSSGAPPPS (ends and bridges not checked) [P308] | – | – | – | – | 0.26 nM | 9.74 nM | 0.09 nM
